The term Kd denotes the equilibrium constant for the complex coming apart.

Kd data for 18 sequences are collected here from the Immune Epitope Database (IEDB).

Some results are limits rather than exact numbers.

What all share (assay): IEDB peptide-MHC binding, purified MHC/competitive/radioactivity; filed as Kd, often an IC50 or EC50 that approximates it; ≥ and ≤ were set here for values at or beyond the usual limits of such assays
Experiment [1] addresses HLA-A*11:01.
The target in experiment [2] is HLA-A*33:01.
Experiment [3] has as its target HLA-A*03:01.
For experiment [4], the target named is HLA-A*31:01.
Experiment [5] addresses HLA-A*68:01.
Where [6] appears, read: source organism: Vaccinia virus WR.
The mark [7] stands for this setting: source organism: Mammarenavirus brazilense.
Setting [8] is: source organism: SARS coronavirus Tor2.
Setting [9] is: source organism: Mammarenavirus guanaritoense.
The mark [10] stands for this setting: source organism: Mammarenavirus machupoense.

In the case of MVDVSMMSMY, the Kd in experiment [1] (setting [6]) was 2.04 µM; in experiment [2] (setting [6]) it was no less than 30.6 µM; in experiment [3] (setting [6]), 2.33 µM; in experiment [4] (setting [6]), no less than 23.9 µM; in experiment [5] (setting [6]), 0.148 µM.

For the sequence NAILHNIYR, the dissociation constant Kd in experiment [1] (setting [6]) was 1.36 µM; in experiment [2] (setting [6]), 0.00182 µM; in experiment [3] (setting [6]), no less than 36.1 µM; in experiment [4] (setting [6]) it was 0.00517 µM; in experiment [5] (setting [6]) it was 0.000565 µM.

On to NIISRTRLY, for which the equilibrium dissociation constant (Kd) in experiment [1] (setting [6]) worked out at 1.02 µM; in experiment [2] (setting [6]), 10.2 µM; in experiment [3] (setting [6]), 0.375 µM; in experiment [4] (setting [6]), 3.91 µM; in experiment [5] (setting [6]) it was 0.879 µM.

On to NLKSLLLENK, for which the Kd amounted to 0.0634 µM in experiment [1] (setting [6]); 2.16 µM in experiment [2] (setting [6]); 0.0888 µM in experiment [3] (setting [6]); 1.06 µM in experiment [4] (setting [6]); 0.137 µM in experiment [5] (setting [6]).

On to NMKPNFWSR, for which the Kd was no less than 34.7 µM in experiment [1] (setting [6]); 0.00106 µM in experiment [2] (setting [6]); no less than 78 µM in experiment [3] (setting [6]); 0.000349 µM in experiment [4] (setting [6]); 0.208 µM in experiment [5] (setting [6]).

For NVKHTSVSAK, the Kd turned out to be 3.35 µM in experiment [1] (setting [6]); 8.28 µM in experiment [2] (setting [6]); 0.519 µM in experiment [3] (setting [6]); 10.3 µM in experiment [4] (setting [6]); 0.502 µM in experiment [5] (setting [6]).

Regarding QFNQMMNPSH, the Kd is no less than 69.7 µM in experiment [1] (setting [7]); no less than 70 µM in experiment [2] (setting [7]); no less than 70 µM in experiment [3] (setting [7]); no less than 20.2 µM in experiment [4] (setting [7]); no less than 70.1 µM in experiment [5] (setting [7]).

For the sequence QLLMPLKAPK, the Kd in experiment [1] (setting [8]) was 0.146 µM; in experiment [2] (setting [8]), 2.29 µM; in experiment [3] (setting [8]), 0.1 µM; in experiment [4] (setting [8]), 0.134 µM; in experiment [5] (setting [8]) it was 1.53 µM.

Take QMRTPLHKY: the equilibrium dissociation constant (Kd) in experiment [1] (setting [6]) is 1.76 µM; in experiment [2] (setting [6]), no less than 77.7 µM; in experiment [3] (setting [6]), 0.141 µM; in experiment [4] (setting [6]) it was 7.83 µM; in experiment [5] (setting [6]), no less than 77.7 µM.

Regarding QTMLFTMLR, the dissociation constant (Kd) stood at 0.00181 µM in experiment [1] (setting [8]); 0.00124 µM in experiment [2] (setting [8]); 0.0435 µM in experiment [3] (setting [8]); 0.000162 µM in experiment [4] (setting [8]); 0.00261 µM in experiment [5] (setting [8]).

In the case of QTVNICIFY, the dissociation constant Kd in experiment [1] (setting [6]) was 0.0399 µM; in experiment [2] (setting [6]), 10.5 µM; in experiment [3] (setting [6]) it was 0.828 µM; in experiment [4] (setting [6]), 0.839 µM; in experiment [5] (setting [6]) it was 0.00196 µM.

As for RSIAMLKSK, the Kd in experiment [1] (setting [6]) is 0.00311 µM; in experiment [2] (setting [6]), no less than 77.7 µM; in experiment [3] (setting [6]), 0.216 µM; in experiment [4] (setting [6]), 1.5 µM; in experiment [5] (setting [6]), 0.637 µM.

For RSKIEVGIRH, the dissociation constant Kd in experiment [1] (setting [9]) is no less than 29 µM; in experiment [2] (setting [9]) it was no less than 70 µM; in experiment [3] (setting [9]), 13.7 µM; in experiment [4] (setting [9]) it was 1.63 µM; in experiment [5] (setting [9]), no less than 22.2 µM.

As to RTELGVEFLK, the Kd is 0.0524 µM in experiment [1] (setting [8]); 15.9 µM in experiment [2] (setting [8]); 0.962 µM in experiment [3] (setting [8]); 1.35 µM in experiment [4] (setting [8]); 9.72 µM in experiment [5] (setting [8]).

On to SFIISTLNK, for which the equilibrium dissociation constant (Kd) in experiment [1] (setting [6]) came to 0.00535 µM; in experiment [2] (setting [6]) it was 8.11 µM; in experiment [3] (setting [6]), 0.0574 µM; in experiment [4] (setting [6]), 0.0051 µM; in experiment [5] (setting [6]), 0.00998 µM.

Consider SLFYTFAISY, for which the equilibrium dissociation constant (Kd) in experiment [1] (setting [6]) was 0.00918 µM; in experiment [2] (setting [6]) it was no less than 31.8 µM; in experiment [3] (setting [6]) it was 0.00362 µM; in experiment [4] (setting [6]), 5.78 µM; in experiment [5] (setting [6]), 1.32 µM.

Take SLIKTILASY: the Kd in experiment [1] (setting [6]) was 1.05 µM; in experiment [2] (setting [6]), no less than 43.3 µM; in experiment [3] (setting [6]) it was 0.0975 µM; in experiment [4] (setting [6]) it was 4.57 µM; in experiment [5] (setting [6]), 1.73 µM.

Turning to SNIQFNISK, the dissociation constant Kd in experiment [1] (setting [10]) was 0.0122 µM; in experiment [2] (setting [10]), 10.9 µM; in experiment [3] (setting [10]), 4.91 µM; in experiment [4] (setting [10]) it was 1.74 µM; in experiment [5] (setting [10]), 0.015 µM.
